Results from paper PMC12667520, “SP3 and DEP1 Orchestrate Panicle Architecture by Jointly Regulating APO2 Expression in Rice”.

T1: SP3 (Dof15) (Oryza sativa)
T1 chain: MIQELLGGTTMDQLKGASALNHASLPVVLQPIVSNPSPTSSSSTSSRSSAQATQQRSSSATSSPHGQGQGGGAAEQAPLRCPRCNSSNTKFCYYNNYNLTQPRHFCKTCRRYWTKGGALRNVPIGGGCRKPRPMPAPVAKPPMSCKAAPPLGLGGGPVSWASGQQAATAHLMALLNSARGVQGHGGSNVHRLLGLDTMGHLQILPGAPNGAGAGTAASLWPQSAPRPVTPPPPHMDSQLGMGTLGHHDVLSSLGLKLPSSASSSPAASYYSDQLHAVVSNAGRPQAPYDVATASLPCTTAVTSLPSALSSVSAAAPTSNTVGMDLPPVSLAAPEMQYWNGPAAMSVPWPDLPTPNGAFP

T2: DEP1 (Oryza sativa, UniProt Q67UU9 1-426)
T2 sequence: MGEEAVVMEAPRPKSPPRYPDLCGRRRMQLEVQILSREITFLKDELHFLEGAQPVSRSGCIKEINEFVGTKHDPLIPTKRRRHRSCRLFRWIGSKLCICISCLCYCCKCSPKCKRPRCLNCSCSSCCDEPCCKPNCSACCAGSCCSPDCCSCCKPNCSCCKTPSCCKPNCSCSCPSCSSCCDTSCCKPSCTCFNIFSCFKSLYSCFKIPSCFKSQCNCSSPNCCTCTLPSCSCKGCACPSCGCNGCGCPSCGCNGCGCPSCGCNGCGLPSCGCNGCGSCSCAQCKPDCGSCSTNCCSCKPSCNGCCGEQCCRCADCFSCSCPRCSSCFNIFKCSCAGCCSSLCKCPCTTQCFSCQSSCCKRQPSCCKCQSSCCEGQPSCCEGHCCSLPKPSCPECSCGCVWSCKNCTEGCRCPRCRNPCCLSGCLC

B1: Bio-Probe (APO2 promoter) (dsDNA)
DNA 1: ACGCATGCAGGAGTATCTTTTTTCTTCGGAAGAGGAACAGTGAC
DNA 2: GTCACTGTTCCTCTTCCGAAGAAAAAAGATACTCCTGCATGCGT

Legend:
[1] = target: FLAG-DEP1 (rice (Oryza sativa)) (UniProt Q67UU9)
[2] = target: T1, SP3 (Dof15); assay: EMSA; LightShift Chemiluminescent EMSA Kit (Thermo), manufacturer's instructions; buffer, salt, pH and temperature not stated; settings: protein: recombinant; tags: GST (pGEX-6p); label: biotin; blunt
[3] = target: T2, DEP1; assay: as above; settings: protein: recombinant; tags: MBP; label: biotin; blunt

| Molecule | share of DEP1-GFP signals localised to the nucleus in rice protoplasts: 16% without SP3, 76% with SP3-HA co-expressed [1] [%] | binding result [2] | binding result [3] |
| --- | --- | --- | --- |
| HA-SP3 (natural protein) | 76 |  |  |
| B1 |  | binds | no binding |
